Here are results for eight sequences from the Immune Epitope Database (IEDB).

One assay concerns the target HLA-C*15:02. The assay is described as follows: IEDB peptide-MHC binding, purified MHC/direct/fluorescence; filed as Kd, often an IC50 or EC50 that approximates it; ≥ and ≤ were set here for values at or beyond the usual limits of such assays.
Another assay has as its target HLA-B*58:01. Described as above.
A further assay addresses HLA-B*57:01. Described as above.
The target in the next assay is HLA-B*15:01. Described as above.
A further assay has as its target HLA-B*27:05. The description is as above.
For a further assay, the target named is HLA-B*15:09. The assay is described as above.
Another assay concerns the target HLA-A*02:01. The description is as above.
Another assay addresses HLA-B*40:01. The description is as above.
The target of the next assay is HLA-A*29:02. Described as above. Particulars: source organism: Yellow fever virus.
The next assay concerns the target HLA-A*01:01. The assay is described as above.
Assay [1] addresses HLA-A*31:01. The assay is described as above.
A further assay addresses HLA-B*48:01. The assay is described as above.
The target of another assay is HLA-B*07:02. Described as above.
A further assay concerns the target HLA-A*03:01. Described as above.
A further assay concerns the target HLA-B*46:01. The assay is described as above.
Assay [2] addresses HLA-A*11:01. Described as above.
The target of assay [3] is HLA-B*18:01. The description is as above.
The target of a further assay is HLA-B*44:02. Described as above. Particulars: source organism: Yellow fever virus.
Another assay has as its target HLA-A*69:01. Described as above.
The target of the next assay is HLA-A*24:03. The assay is described as above.
The next assay concerns the target HLA-B*39:01. Described as above.
The target of assay [4] is HLA-A*68:02. The description is as above. Particulars: source organism: Marburg virus - Musoke, Kenya, 1980.
For another assay, the target named is HLA-A*26:03. Described as above.
Another assay has as its target HLA-A*26:02. The assay is described as follows: IEDB peptide-MHC binding, purified MHC/competitive/fluorescence; filed as Kd, often an IC50 or EC50 that approximates it; ≥ and ≤ were set here for values at or beyond the usual limits of such assays.
Assay [5] deals with HLA-B*15:17. The description is as above.
Assay [6] has as its target HLA-A*31:01. The assay is described as above. Particulars: source organism: Orthomarburgvirus marburgense.
Another assay deals with HLA-A*02:06. The assay is described as above. Particulars: source organism: Orthomarburgvirus marburgense.
Assay [7] concerns the target HLA-B*15:17. As to the kind of experiment: IEDB peptide-MHC binding, purified MHC/direct/fluorescence; filed as Kd, often an IC50 or EC50 that approximates it; ≥ and ≤ were set here for values at or beyond the usual limits of such assays. Particulars: source organism: Camelpox virus CMS.
The target of assay [8] is HLA-A*11:01. The assay is described as follows: IEDB peptide-MHC binding, purified MHC/competitive/fluorescence; filed as Kd, often an IC50 or EC50 that approximates it; ≥ and ≤ were set here for values at or beyond the usual limits of such assays.
The next assay addresses HLA-B*08:01. As to the kind of experiment: IEDB peptide-MHC binding, purified MHC/direct/fluorescence; filed as Kd, often an IC50 or EC50 that approximates it; ≥ and ≤ were set here for values at or beyond the usual limits of such assays. The settings on record: source organism: Variola virus.
Another assay has as its target HLA-B*08:02. The assay is described as above. Particulars: source organism: Variola virus.
The target in assay [9] is HLA-B*18:01. As to the kind of experiment: IEDB peptide-MHC binding, purified MHC/competitive/fluorescence; filed as Kd, often an IC50 or EC50 that approximates it; ≥ and ≤ were set here for values at or beyond the usual limits of such assays. The settings on record: source organism: Taterapox virus.
Assay [10] has as its target HLA-A*68:02. The assay is described as above. The settings on record: source organism: Taterapox virus.
The next assay has as its target HLA-A*24:02. Described as above. Particulars: source organism: Escherichia coli B7A.
The mark [11] stands for this setting: source organism: Giardia lamblia ATCC 50803.
Where [12] appears, read: source organism: Yellow fever virus.
[13] abbreviates: source organism: Marburg virus - Musoke, Kenya, 1980.
[14] abbreviates: source organism: Ravn virus - Ravn, Kenya, 1987.
Setting [15] is: source organism: Orthomarburgvirus marburgense.
The mark [16] stands for this setting: source organism: Camelpox virus CMS.
Setting [17] is: source organism: Camelpox virus M-96.
Where [18] appears, read: source organism: Taterapox virus.

pKd: −log10 of the molar value. Some results are limits rather than exact numbers.

Broadly, the pKd is −log10 of the Kd, conventionally taken in molar units. The low end stands for a large Kd, the high end for a small Kd.

With VSTAIAALF, the results for the pKd in the assay with HLA-C*15:02 (source organism: Mycobacterium tuberculosis H37Ra) and with HLA-B*58:01 (source organism: Mycobacterium tuberculosis) were 6.35 and 7.55, respectively.
Turning to RAIREYFQF, the pKd with HLA-C*15:02 (setting [11]) was 5.67; with HLA-B*58:01 (setting [11]), 8.30; in the assay with HLA-B*57:01 (setting [11]), 7.32.
In the case of FHERGYVKL, the pKd with HLA-B*15:01 (setting [12]) was at most 4.70; with HLA-B*27:05 (setting [12]), at most 4.70; in the assay with HLA-B*15:09 (setting [12]), 7.15; with HLA-A*02:01 (setting [12]) it was at most 4.70; with HLA-B*40:01 (setting [12]), at most 4.70; with HLA-A*29:02, at most 4.70. The pKd with HLA-A*01:01 (setting [12]), with HLA-A*31:01 [1] (setting [12]), with HLA-B*48:01 (setting [12]), in the assay with HLA-B*07:02 (setting [12]), with HLA-A*03:01 (setting [12]) and in the assay with HLA-B*46:01 (setting [12]) was at most 4.70 throughout. In addition, the pKd in the assay with HLA-A*11:01 [2] (setting [12]), in the assay with HLA-B*18:01 [3] (setting [12]), with HLA-B*44:02, with HLA-A*69:01 (setting [12]), with HLA-B*58:01 (setting [12]) and with HLA-B*57:01 (setting [12]) was at most 4.70 each time.
For the sequence LFLSFCSLF, the pKd in the assay with HLA-B*15:01 (setting [13]) was at most 4.70; with HLA-B*15:09 (setting [14]), at most 4.70; in the assay with HLA-A*02:01 (setting [13]) it was at most 4.70; with HLA-A*24:03 (setting [13]), 6.61; with HLA-A*01:01 (setting [13]) it was at most 4.70; with HLA-B*07:02 (setting [13]) it was at most 4.70. Also, the pKd with HLA-B*39:01 (setting [14]) is at most 4.70; with HLA-A*11:01 [2] (setting [13]), at most 4.70; with HLA-B*18:01 [3] (setting [13]), at most 4.70; with HLA-A*68:02 [4], at most 4.70; with HLA-A*69:01 (setting [13]) it was at most 4.70; in the assay with HLA-B*58:01 (setting [14]), 5.86. Besides, the pKd with HLA-B*57:01 (setting [13]), with HLA-A*26:03 (setting [14]), with HLA-A*26:02 (setting [15]), with HLA-B*15:17 [5] (setting [15]), with HLA-A*31:01 [6] and with HLA-A*02:06 was at most 4.70 throughout.
In the case of FTYAPAGMY, the pKd with HLA-A*26:03 (source organism: Listeria monocytogenes serotype 4b str. H7858) is 6.94.
Consider VSEKYTDMY, for which the pKd was 6.90 in the assay with HLA-B*15:17 [7]; at most 4.70 in the assay with HLA-B*15:01 (setting [16]); at most 4.70 with HLA-B*27:05 (setting [16]); at most 4.70 in the assay with HLA-B*15:09 (source organism: Variola virus); at most 4.70 with HLA-A*02:01 (setting [16]); at most 4.70 with HLA-B*40:01 (setting [16]). The pKd with HLA-A*01:01 (setting [16]) was 8.48; with HLA-A*31:01 [1] (setting [16]), at most 4.70; with HLA-B*48:01 (setting [16]), at most 4.70; with HLA-A*03:01 (setting [16]) it was at most 4.70; in the assay with HLA-B*46:01 (setting [16]), at most 4.70; with HLA-B*39:01 (source organism: Variola virus) it was at most 4.70. For the same sequence, the pKd in the assay with HLA-A*69:01 (setting [16]), in the assay with HLA-B*58:01 (setting [16]), with HLA-B*57:01 (setting [16]) and in the assay with HLA-A*11:01 [8] (source organism: Vaccinia virus) was at most 4.70 throughout.
As for SYVFNFHKY, the pKd with HLA-B*15:01 (setting [17]) is at most 4.70; in the assay with HLA-A*02:01 (setting [17]) it was at most 4.70; with HLA-A*24:03 (setting [17]), 7.26; with HLA-A*01:01 (setting [17]) it was at most 4.70; with HLA-A*31:01 [1] (setting [17]), at most 4.70; in the assay with HLA-B*08:01, at most 4.70. Further, the pKd with HLA-B*07:02 (setting [17]) is at most 4.70; in the assay with HLA-A*69:01 (setting [17]) it was at most 4.70; with HLA-B*08:02, at most 4.70; in the assay with HLA-B*58:01 (setting [17]), at most 4.70; with HLA-B*57:01 (setting [17]), at most 4.70; with HLA-A*26:02 (setting [18]) it was 5.39. Also, the pKd with HLA-B*15:17 [5] (setting [18]) was at most 4.70; with HLA-A*11:01 [8] (setting [18]) it was 5.59; with HLA-B*18:01 [9], at most 4.70; in the assay with HLA-A*68:02 [10], at most 4.70.
For the sequence ITPTIYLLL, the pKd with HLA-C*15:02 (source organism: Escherichia coli B7A) is 6.40; with HLA-A*24:02, 9.15.
